Laboratory results: patent US20230203469A1

Legend:
[1] = target: T1, FRETS-VWF73 substrate, P04275
T1 chain: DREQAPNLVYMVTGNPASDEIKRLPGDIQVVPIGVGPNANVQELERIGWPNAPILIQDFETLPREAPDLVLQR

[2] = target: recombinant VWF (full-length, multimeric rVWF), P04275
[3] = target: von Willebrand factor (VWF), substrate of the in vitro cleavage of Table 1, P04275

B1: Q97R ADAMTS13 variant (protein)
chain: AAGGILHLELLVAVGPDVFQAHREDTERYVLTNLNIGAELLRDPSLGAQFRVHLVKMVILTEPEGAPNITANLTSSLLSVCGWSQTINPEDDTDPGHADLVLYITRFDLELPDGNRQVRGVTQLGGACSPTWSCLITEDTGFDLGVTIAHEIGHSFGLEHDGAPGSGCGPSGHVMASDGAAPRAGLAWSPCSRRQLLSLLSAGRARCVWDPPRPQPGSAGHPPDAQPGLYYSANEQCRVAFGPKAVACTFAREHLDMCQALSCHTDPLDQSSCSRLLVPLLDGTECGVEKWCSKGRCRSLVELTPIAAVHGRWSSWGPRSPCSRSCGGGVVTRRRQCNNPRPAFGGRACVGADLQAEMCNTQACEKTQLEFMSQQCARTDGQPLRSSPGGASFYHWGAAVPHSQGDALCRHMCRAIGESFIMKRGDSFLDGTRCMPSGPREDGTLSLCVSGSCRTFGCDGRMDSQQVWDRCQVCGGDNSTCSPRKGSFTAGRAREYVTFLTVTPNLTSVYIANHRPLFTHLAVRIGGRYVVAGKMSISPNTTYPSLLEDGRVEYRVALTEDRLPRLEEIRIWGPLQEDADIQVYRRYGEEYGNLTRPDITFTYFQPKPRQAWVWAAVRGPCSVSCGAGLRWVNYSCLDQARKELVETVQCQGSQQPPAWPEACVLEPCPPYWAVGDFGPCSASCGGGLRERPVRCVEAQGSLLKTLPPARCRAGAQQPAVALETCNPQPCPARWEVSEPSSCTSAGGAGLALENETCVPGADGLEAPVTEGPGSVDEKLPAPEPCVGMSCPPGWGHLDATSAGEKAPSPWGSIRTGAQAAHVWTPAAGSCSVSCGRGLMELRFLCMDSALRVPVQEELCGLASKPGSRREVCQAVPCPARWQYKLAACSVSCGRGVVRRILYCARAHGEDDGEEILLDTQCQGLPRPEPQEACSLEPCPPRWKVMSLGPCSASCGLGTARRSVACVQLDQGQDVEVDEAACAALVRPEASVPCLIADCTYRWHVGTWMECSVSCGDGIQRRRDTCLGPQAQAPVPADFCQHLPKPVTVRGCWAGPCVGQGTPSLVPHEEAAAPGRTTATPAGASLEWSQARGLLFSPAPQPRRLLPGPQENSVQSSACGRQHLEPTGTIDMRGPGQADCAVAIGRPLGEVVTLRVLESSLNCSAGDMLLLWGRLTWRKMCRKLLDMTFSSKTNTLVVRQRCGRPGGGVLLRYGSQLAPETFYRECDMQLFGPWGEIVSPSLSPATSNAGGCRLFINVAPHARIAIHALATNMGAGTEGANASYILIRDTHSLRTTAFHGQQVLYWESESSQAEMEFSEGFLKAQASLRGQYWTLQSWVPEMQDPQSWKGKEGT
[1]
  Specific rADAMTS13 activity (activity per total protein by UV): 1740 IU/mg
  rADAMTS13 Activity (FRETS VWF73): 1370 IU/mL
  specific activity (FRETS U/mg UV protein) against share of Q97R, regression: suggesting that the Q^97R rADAMTS13 variant has similar activity to that of wildtype ADAMTS13
[2]
  Degradation of full-length rVWF under denaturing conditions (VWF multimer analysis): Comparable

B2: plasma derived ADAMTS13 (pdADAMTS13) (protein)
chain: AAGGILHLELLVAVGPDVFQAHQEDTERYVLTNLNIGAELLRDPSLGAQFRVHLVKMVILTEPEGAPNITANLTSSLLSVCGWSQTINPEDDTDPGHADLVLYITRFDLELPDGNRQVRGVTQLGGACSPTWSCLITEDTGFDLGVTIAHEIGHSFGLEHDGAPGSGCGPSGHVMASDGAAPRAGLAWSPCSRRQLLSLLSAGRARCVWDPPRPQPGSAGHPPDAQPGLYYSANEQCRVAFGPKAVACTFAREHLDMCQALSCHTDPLDQSSCSRLLVPLLDGTECGVEKWCSKGRCRSLVELTPIAAVHGRWSSWGPRSPCSRSCGGGVVTRRRQCNNPRPAFGGRACVGADLQAEMCNTQACEKTQLEFMSQQCARTDGQPLRSSPGGASFYHWGAAVPHSQGDALCRHMCRAIGESFIMKRGDSFLDGTRCMPSGPREDGTLSLCVSGSCRTFGCDGRMDSQQVWDRCQVCGGDNSTCSPRKGSFTAGRAREYVTFLTVTPNLTSVYIANHRPLFTHLAVRIGGRYVVAGKMSISPNTTYPSLLEDGRVEYRVALTEDRLPRLEEIRIWGPLQEDADIQVYRRYGEEYGNLTRPDITFTYFQPKPRQAWVWAAVRGPCSVSCGAGLRWVNYSCLDQARKELVETVQCQGSQQPPAWPEACVLEPCPPYWAVGDFGPCSASCGGGLRERPVRCVEAQGSLLKTLPPARCRAGAQQPAVALETCNPQPCPARWEVSEPSSCTSAGGAGLALENETCVPGADGLEAPVTEGPGSVDEKLPAPEPCVGMSCPPGWGHLDATSAGEKAPSPWGSIRTGAQAAHVWTPAAGSCSVSCGRGLMELRFLCMDSALRVPVQEELCGLASKPGSRREVCQAVPCPARWQYKLAACSVSCGRGVVRRILYCARAHGEDDGEEILLDTQCQGLPRPEPQEACSLEPCPPRWKVMSLGPCSASCGLGTARRSVACVQLDQGQDVEVDEAACAALVRPEASVPCLIADCTYRWHVGTWMECSVSCGDGIQRRRDTCLGPQAQAPVPADFCQHLPKPVTVRGCWAGPCVGQGTPSLVPHEEAAAPGRTTATPAGASLEWSQARGLLFSPAPQPRRLLPGPQENSVQSSACGRQHLEPTGTIDMRGPGQADCAVAIGRPLGEVVTLRVLESSLNCSAGDMLLLWGRLTWRKMCRKLLDMTFSSKTNTLVVRQRCGRPGGGVLLRYGSQLAPETFYRECDMQLFGPWGEIVSPSLSPATSNAGGCRLFINVAPHARIAIHALATNMGAGTEGANASYILIRDTHSLRTTAFHGQQVLYWESESSQAEMEFSEGFLKAQASLRGQYWTLQSWVPEMQDPQSWKGKEGT
[1]
  specific activity (FRETS U/antigen U), compared with mixed rADAMTS13 batches: the average specific activity of the mixed rADAMTS13 batches is comparable with the specific activity of pdADAMTS13
[3]
  IU VWF RCo/ml left; ADAMTS13 0.1 U/ml, 0 h (IU VWF RCo/ml): 0.75
  IU VWF RCo/ml left; ADAMTS13 0.1 U/ml, 15 seconds (IU VWF RCo/ml): 0.38
  IU VWF RCo/ml left; ADAMTS13 0.1 U/ml, 30 seconds (IU VWF RCo/ml): 0.37
  IU VWF RCo/ml left; ADAMTS13 0.1 U/ml, 1 minute (IU VWF RCo/ml): 0.21
  IU VWF RCo/ml left; ADAMTS13 0.1 U/ml, 2 minutes (IU VWF RCo/ml): < 0.17
  IU VWF RCo/ml left; ADAMTS13 0.1 U/ml, 5 minutes (IU VWF RCo/ml): < 0.17
  IU VWF RCo/ml left; ADAMTS13 0.5 U/ml, 0 h (IU VWF RCo/ml): 0.78
  IU VWF RCo/ml left; ADAMTS13 0.5 U/ml, 15 seconds (IU VWF RCo/ml): < 0.17
  IU VWF RCo/ml left; ADAMTS13 0.5 U/ml, 30 seconds (IU VWF RCo/ml): < 0.17
  IU VWF RCo/ml left; ADAMTS13 0.5 U/ml, 1 minute (IU VWF RCo/ml): < 0.17
  IU VWF RCo/ml left; ADAMTS13 0.5 U/ml, 2 minutes (IU VWF RCo/ml): < 0.17
  IU VWF RCo/ml left; ADAMTS13 0.5 U/ml, 5 minutes (IU VWF RCo/ml): < 0.17
  IU VWF RCo/ml left; ADAMTS13 1.0 U/ml, 0 h (IU VWF RCo/ml): 0.26
  IU VWF RCo/ml left; ADAMTS13 1.0 U/ml, 15 seconds (IU VWF RCo/ml): < 0.17
  IU VWF RCo/ml left; ADAMTS13 1.0 U/ml, 30 seconds (IU VWF RCo/ml): < 0.17
  IU VWF RCo/ml left; ADAMTS13 1.0 U/ml, 1 minute (IU VWF RCo/ml): < 0.17
  IU VWF RCo/ml left; ADAMTS13 1.0 U/ml, 2 minutes (IU VWF RCo/ml): < 0.17
  IU VWF RCo/ml left; ADAMTS13 1.0 U/ml, 5 minutes (IU VWF RCo/ml): < 0.17
